The target of this experiment is Tau from human Alzheimer's Disease brain lysate (Braak stage VI) (human), P10636. Kind of experiment: ELISA on Tau captured from AD brain lysate, curve without blocking peptide. The settings on record: remark: other sources report otherwise.
Tau from human Alzheimer's Disease brain lysate (Braak stage VI) (human), P10636, sequence (P10636 other isoform, or with tags, fused parts or gaps limits assumed): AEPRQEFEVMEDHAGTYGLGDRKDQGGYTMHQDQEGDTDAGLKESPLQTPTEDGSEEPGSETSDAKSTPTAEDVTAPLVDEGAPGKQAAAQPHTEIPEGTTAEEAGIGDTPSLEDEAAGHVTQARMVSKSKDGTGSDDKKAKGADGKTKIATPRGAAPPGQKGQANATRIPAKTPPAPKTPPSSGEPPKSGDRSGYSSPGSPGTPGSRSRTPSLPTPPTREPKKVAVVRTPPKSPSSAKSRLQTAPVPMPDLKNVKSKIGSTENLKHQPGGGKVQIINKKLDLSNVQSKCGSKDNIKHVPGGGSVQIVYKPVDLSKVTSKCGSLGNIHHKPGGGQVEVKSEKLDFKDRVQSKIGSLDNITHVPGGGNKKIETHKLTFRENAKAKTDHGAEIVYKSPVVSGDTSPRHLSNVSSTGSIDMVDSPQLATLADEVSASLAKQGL

B1: PT3 comparator antibody (antibody)
chain 1: EVKLVESGGDLVKPGGSLKLSCAASGFTFSSYAMSWVRQNPEKRLEWVASISKGGNTYYPNSVKGRFTISRDNARNILYLQMSSLRSEDTALYYCARGWGDYGWFAYWGQVTLVTVSA
chain 2: DIKMTQSPSSMYASLGERVTITCKASQDINRYLNWFQQKPGKSPKTLIYRANRLLDGVPSRFSGSGSGQDYSLTISSLDYEDMGIYYCLQYDEFPLTFGDGTKLELK
modifications: here or on the partner: native phosphorylation and other post-translational modifications, not defined
In turn, B1 displayed an EC50 (read off the curve) of 20 pM.

For the origin of these results see patent US20240076361A1.
